Article doi:10.1101/2024.03.22.586355, “Dynamic fibrillar assembly of αB-crystallin induced by perturbation of the conserved NT-IXI motif resolved by cryo-EM” (bioRxiv, 2024)

Key:
[1] = biological target: the molecule itself; assay: cryo-EM structure; αB-AXA fibrils elongated at room temperature for about four weeks, dialysed (1 MDa m.w.c.o.), 0.5 mg/mL; helical and local refinement with D2 symmetry, 3.4 Å
[2] = biological target: the molecule itself; assay: SEC + other: negative-stain electron microscopy; Superose-6 24 mL column; peak fractions examined by negative-stain EM with 2D class averaging; 20 mM HEPES pH 7.4, 150 mM NaCl, 1 mM EDTA

Protein | binding result [1] | binding result [2]
human αB-crystallin NT-AXA variant (natural protein, UniProt P02511 1-175, looked up, human αB-crystallin (HSPB5, CRYAB), 20.2 kDa subunit; The cryo-EM model covers residues 75-161; the last 14 residues are not modelled; also called αB-AXA; source: E. coli BL21, purified (Sephacryl 300 SEC, MonoQ ion exchange), no purification tags) MDAAAHHPWIRRPFFPFHSPSRLFDQFFGEHLLESDLFPTSTSLSPFYLRPPSFLRAPSWFDTGLSEMRLEKDRFSVNLDVKHFSPEELKVKVLGDVIEVHGKHEERQDEHGFISREFHRKYRIPADVDPLTITSSLSSDGVLTVNGPRKQVSGPERTIPITREEKPAVTAAPKK | binds | –
human wildtype αB-crystallin (natural protein, UniProt P02511 1-175, looked up, human αB-crystallin (HSPB5, CRYAB), 20.2 kDa subunit; pET plasmid containing the human αB-crystallin gene; Polydisperse cage-like oligomers; also called αB-wt; αB-WT; source: E. coli BL21, purified (Sephacryl 300 SEC, MonoQ ion exchange), no purification tags) MDIAIHHPWIRRPFFPFHSPSRLFDQFFGEHLLESDLFPTSTSLSPFYLRPPSFLRAPSWFDTGLSEMRLEKDRFSVNLDVKHFSPEELKVKVLGDVIEVHGKHEERQDEHGFISREFHRKYRIPADVDPLTITSSLSSDGVLTVNGPRKQVSGPERTIPITREEKPAVTAAPKK | – | binds
